Measured values from PMC10165876.

Legend:
[1] = target: MYC-tagged NKp46 (extracellular domain) (human) (UniProt O76036); experiment: MST
[2] = target: NKp46–Ig (ACROBiosystems), used for MST and BLI (human) (UniProt O76036); experiment: MST

| Substance | Kd [1] [µM] | Kd [2] [µM] |
| --- | --- | --- |
| CRT P domain fused to the Fc region of human Ig (Fc fusion) | 41.2 |  |
| influenza haemagglutinin, His-tagged (natural protein) |  | 1.46 |
